# Source: patent US20080124320A1, “Use of HMGB fragments as anti-inflammatory agents” (priority 2002, published 2008)
# B1: B box: Recombinant human HMGB1 B box mutant polypeptide, SEQ ID NO:20, expressed with a GST gene fusion system in E. coli (protein, listed as Homo sapiens)
# chain: FKDPNAPKRLPSAFFLFCSEYRPKIKGEHPGLSIGDVAKKLGEMWNNTAADDKQPYEKKAAKLKEKYEKDIAAY
# modifications: GST fusion
# B2: A box: Recombinant human HMGB1 amino terminus + A box mutant, SEQ ID NO:21 (A box SEQ ID NO:22), GST fusion system (protein, listed as Homo sapiens)
# chain: MGKGDPKKPTGKMSSYAFFVQTCREEHKKKHPDASVNFSEFSKKCSERWKTMSAKEKGKFEDMAKADKARYEREMKTYIPPKGET
# modifications: GST fusion
# B3: HMGB1: Recombinant full length human HMGB1, SEQ ID NO:18; recombinant rat HMGB1 used in some experiments (protein, listed as Homo sapiens)
# chain: MGKGDPKKPTGKMSSYAFFVQTCREEHKKKHPDASVNFSEFSKKCSERWKTMSAKEKGKFEDMAKADKARYEREMKTYIPPKGETKKKFKDPNAPKRLPSAFFLFCSEYRPKIKGEHPGLSIGDVAKKLGEMWNNTAADDKQPYEKKAAKLKEKYEKDIAAYRAKGKPDAAKKGVVKAEKSKKKKEEEEDEEDEEDEEEEEDEEDEEDEEEDDDDE
# What was measured:
# [1] = target: RAGE on murine macrophage-like RAW 264.7 cells (mouse (murine RAW 264.7 cells)) (UniProt Q62151); test: cell-based or functional assay
# Chain of RAGE on murine macrophage-like RAW 264.7 cells (mouse (murine RAW 264.7 cells)) (Q62151 23-402): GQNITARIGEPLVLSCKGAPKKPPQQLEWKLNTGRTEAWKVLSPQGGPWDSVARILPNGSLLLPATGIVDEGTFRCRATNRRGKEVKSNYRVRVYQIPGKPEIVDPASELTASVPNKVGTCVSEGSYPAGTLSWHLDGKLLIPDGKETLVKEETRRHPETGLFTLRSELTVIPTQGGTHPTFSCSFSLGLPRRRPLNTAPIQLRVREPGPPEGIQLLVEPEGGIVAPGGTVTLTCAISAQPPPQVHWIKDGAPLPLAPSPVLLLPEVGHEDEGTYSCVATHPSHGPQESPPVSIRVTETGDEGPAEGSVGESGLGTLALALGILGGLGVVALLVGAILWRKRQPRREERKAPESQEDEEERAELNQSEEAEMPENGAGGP
# [2] = target: Recombinant full length human HMGB1 (wild type HMGB1) (human); test: cell-based or functional assay
# RAW 264.7 cells [3] = test: TNF release from RAW 264.7 cells, L929 cytotoxicity bioassay; assay type: cell-based, murine
# Procedure: (§1) Murine macrophage-like RAW 264.7 cells (American Type Culture Collection, Rockville, Md.) were cultured in RPMI 1640 medium (Life Technologies, Grand Island N.Y.) supplemented with 10% fetal bovine serum (Gemini, Catabasas, Calif.), penicillin and streptomycin (Life Technologies) and were used at 90% confluence in serum-free Opti-MEM I medium (Life Technologies, Grand Island, N.Y.). […] Polymyxin B was not used in experiments of synthetic peptide studies.
# TNF release was measured by a standard murine fibroblast L929 (ATCC, American Type Culture Collection, Rockville, Md.) cytotoxicity bioassay (Bianchi et al., Journal of Experimental Medicine 183:927-936, 1996) with the minimum detectable concentration of 30 pg/ml. […]
# The effect of the mutants on TNF release from Murine macrophage-like RAW 264.7 cells (ATCC) was carried out as follows. […] Conditioned supernatants (containing TNF which had been released from the cells) were collected and TNF released from the cells was measured by a standard murine fibroblast L929 (ATCC) cytotoxicity bioassay (Bianchi et al., supra) with the minimum detectable concentration of 30 pg/ml. […]
# To further examine the effect of HMGB1 B box on cytokine production, varying amounts of HMGB1 B box were evaluated for the effects on TNF, IL-1, and IL-6 production in murine macrophage-like RAW 264.7 cells. […]
# RAW 264.7 cells [4] = test: IL-6 release from RAW 264.7 cells, ELISA; assay type: cell-based, murine; details: B box 0-10 μg/ml, 8 hours (FIG. 2C)
# Procedure: as §1
# To further examine the effect of HMGB1 B box on cytokine production, varying amounts of HMGB1 B box were evaluated for the effects on TNF, IL-1, and IL-6 production in murine macrophage-like RAW 264.7 cells. Conditioned media were harvested and measured for TNF, IL-1β and IL-6 levels. TNF levels were measured as described herein, and IL-1β and IL-6 levels were measured using the mouse IL-1β and IL-6 enzyme-linked immunosorbent assay (ELISA) kits (R&D System Inc., Minneapolis, Minn.) and N>5 for all experiments.
# C3H/HeJ mice = test: Lethality and histology in C3H/HeJ mice; assay type: in vivo, mouse; details: 8 hours after administration
# [5] = tested on: Balb/c mice subjected to CLP; test: Cecal ligation and puncture (CLP) sepsis, survival of Balb/c mice; assay type: in vivo, mouse; details: i.p. twice daily for 3 days beginning 24 hours after CLP
# Procedure: Cecal ligation and puncture (CLP) was performed as described previously (Fink and Heard, J. Surg. Res. 49:186-196, 1990; Wichmann et al., Crit. Care Med. 26:2078-2086, 1998; and Remick et al., Shock 4:89-95, 1995). Briefly, Balb/c mice were anesthetized with 75 mg/kg ketamine (Fort Dodge, Fort Dodge, Iowa) and 20 mg/kg of xylazine (Bohringer Ingelheim, St. Joseph, Mo.) intramuscularly. A midline incision was performed, and the cecum was isolated. A 6-0 prolene suture ligature was placed at a level 5.0 mm from the cecal tip away from the ileocecal valve.
# The ligated cecal stump was then punctured once with a 22-gauge needle, without direct extrusion of stool. The cecum was then placed back into its normal intra-abdominal position. […] Mortality was recorded for up to 1 week after the procedure; survivors were followed for 2 weeks to ensure no late mortalities had occurred.
# To determine whether the HMGB1 A box can inhibit the lethality of HMGB1 during sepsis, mice were subjected to cecal perforation and treated by administration of A box beginning 24 hours after the onset of sepsis. […] Survival was monitored twice daily for up to 2 weeks to ensure no late death occurred. […]
# Passive immunization of critically ill septic mice with anti-HMGB1 antibodies was also assessed. […] Survival was monitored for 2 weeks. […]
# [6] = tested on: NF-κB-dependent ELAM promoter; test: NF-κB dependent ELAM promoter luciferase reporter in RAW 264.7 macrophages; assay type: cell-based, murine; details: HMGB1 100 ng/ml or B box 10 μg/ml, 5 hours; decreased with MyD 88 dominant negative (FIG. 11B)
# Procedure: To examine the effects of HMGB1 or HMGB1 B box on the NF KB dependent ELAM promoter, the following experiment was carried out. RAW 264.7 macrophages were transiently co transfected with an expression plasmid encoding a murine MyD 88 dominant negative (DN) mutant (corresponding to amino acids 146 296), or empty vector, plus a luciferase reporter plasmid under the control of the NF κB dependent ELAM promoter, as described by Means et al. (J. Immunol. 166:4074 4082, 2001). A portion of the cells were then stimulated with full length HMGB1 (100 ng/ml), or purified HMGB1 B box (10 μg/ml), for 5 hours. Cells were then harvested and luciferase activity was measured, using standard methods. All transfections were performed in triplicate, repeated at least three times, and a single representative experiment is shown in FIG. 11B.
molecule,measurement,setting,value
Recombinant full length human HMGB1 (wild type HMGB1) (from UniProt A9RA84 1-215) (ligand),decrease of HMG-1 signaling (TNF release from RAW 264.7 cells) by anti-RAGE antibody,[1],40%
HMGB1 A box protein (Amino terminus + A box mutant of human HMGB1) (from UniProt A9RA84 1-85),inhibition of HMGB1 induced TNF release from RAW 264.7 cells (L929 cytotoxicity assay),[2],7.5 µg/mL
fkdpnapkrlpsafflfcse (FKDPNAPKRLPSAFFLFCSE; listed as Homo sapiens) [1-20],TNF release by synthetic B box peptide fragments,"RAW 264.7 cells [3]; synthetic peptide 10 μg/ml, 10 hours, no polymyxin B (FIG. 3), listed as 1-20-mer","less potent than either the full length synthetic B box (1-74-mer), or full length HMGB1"
B1,TNF protein expression over time versus medium only,"RAW 264.7 cells [3]; 10 μg/ml, 0-48 hours (FIGS. 2E, 2F)",stimulated TNF protein expression
same,"IL-6 release, dose response",RAW 264.7 cells [4],increased with increased amounts of B box
same,histology of heart,C3H/HeJ mice,evidence of ischemia with loss of cross striation associated with amorphous pink cytoplasm in myocardial fibers
same,histology of liver,C3H/HeJ mice,"mild acute inflammatory responses, with some hepatocyte dropout and apoptosis, and occasional polymorphonuclear leukocytes"
B2,clinical condition of animals,[5]; 60 μg/mouse,most died
same,clinical condition of animals,[5]; 600 μg/mouse,"significantly more alert, active, and to resume feeding behavior"
B3,luciferase activity (NF-κB dependent ELAM promoter),[6],stimulated luciferase activity
